Test: soluble on expression in E. coli; label from the status in PepcDB or PDB records

Row | Sequence | soluble on expression in E. coli
1 | MVMRYSLKQLAVFDAVATTGSVSQAAELLSLTQSATSMSLSQLEKMLGRSLFERHGKRMALTHWGVWLRPKAKKLIHDAQQIELGFYDQHLISGEISLGASQTAAEHLVPNLISNIDNDFPEIRISLGVKNTSGIIEGVLDYKYELGIIEGRCDDSRIHQEVFCTDHLIIVAAAHHPFAKHEKVSLAQLEQAKWVLREHGAGTRTIFDSAIHGKIPDLDVWREYEYVPVLRTLVANGQYLSCLPYLDVVKYIERGELVALNVPELNMERTLSFIWRSSMDQNPISDCIRREGIRMIKNHNVIR | not soluble
2 | MVNFKDKSMPTAIEKALDFIGGMNTSASVPHSMDESTAKGILKYLHDLGVPVSPEVVVARGEQEGWNPEFTKKVAGWAEKVASGNRILIKNPEYFSTYMQEQLKELVLEHHHHHH | soluble
3 | MVNQQEEINLSVALVTRNRPDSLERCLKSLRDQKVQPFEVVVSDDSDDLYKSSTKEIAQKWGCRYIDGPKRGLYANRNYVALACYGTHIRTMDDDHEFPEQHIEVCLNAIQSDPSSIWIIGEYSPTSSIENAPHPCPGQLHPRGFSFYPKDTQNCWAIADGASIYPKKIFASGLRFVEYYKFGASYLEWGSRLYYLSYRIRHLDSTYIIHHFNPKARSFSDQEMDQSSRFFAMLCHSFLYQSTFKNKCLFSYEILKQFILDPKLTIKCIINSWSNFELFSRSFCALEHHHHHH | not soluble
4 | MVPRTEIVAIEYGTPIEELKARFIESGISKIIVYKENIDNIIGYIHSSEMFREQTDWTKSVRQLPIAPETMGAHKLMKLFMQQKKSLAVVVDEFGGTSGIVALEDLVEEIFGEIEDEHDTTSYIA | not soluble
5 | MVPSTFSRLKAARCLPVVLAALIFVGCGTHTPDQSTAYMQGTAQADSAFYLQQMQQSSDDTRINWQLLAIRALVKEGKTGQAVELFNQLPQELNDSQRREKTLLAVEIKLAQKDFAGAQNLLAKITPADLEQNQQARYWQAKIDASQGRPSIDLLRALIAQEPLLGAKEKQQNIDATWQALSSMTQEQANTLVINADENILQGWLDLQRVWFDNRNDPDMMKAGIADWQKRYPNNPGAKMLPTQLVNVKAFKPASTNKIALLLPLNGQAAVFGRTIQQGFEAAKNIGTQPVAAQVAAAPAADVAEQPQPQTADGVASPAQASVSDLTGDQPAAQPVPVSAPATSTAAVSAPANPSAELKIYDTSSQPLSQILSQVQQDGASIVVGPLLKNNVEELLKSNTPLNVLALNQPENIENRVNICYFALSPEDEARDAARHIRDQGKQAPLVLIPRSSLGDRVANAFAQEWQKLGGGTVLQQKFGSTSELRAGVNGGSGIALTGTPITPRATTDSGMTTNNPTLQTTPTDDQFTNNGGRVDAVYIVATPGEIAFIKPMIAMRNGSQSGATLYASSRSAQGTAGPDFRLEMEGLQYSEIPMLAGGNLPLMQQALSAVNNDYSLARMYAMGVDAWSLANHFSQMRQVQGFEINGNTGSLTANPDCVINRKLSWLQYQQGQVVPAS | soluble
6 | MVQEQMKLTGTLEGHTGWVTQIATYTRNDKTTVLSSSRDKTILVWDVDSVAPVDEGPIGRPVRSLTGHNHFVSDVVISSDGQFALSGSWDKTLRLWDLNQGVSTRQFISHTKDVLSVAFSADNRQIVSGSRDKSIKLWNTLAQCKYTITDDCHTDWVSTVRFSPSNRDPVIVSAGWDKVVKVWNLGNCRLKTNHIGHTGYVNTVTVSPDGSLCASGGKDGQAMLWDLNEGKHLYTLPGNDVINAMSFSPNRYWLCAAVGSSIKIWDLEDKKEIEELKPEIASSGSSRGSSPQCISLAWSQDGQTLFAGYTDNIIRVYQVSIRASN | not soluble
7 | MVRPRTIDRERLLDIAESIISEAGAVTISFGGLAEAAGLSKASVQSVFGTREAMMEALLERWLRKEQRAYQKKIGPQSSLRERVRRHVKITGKESSEANSRLAAVLTALVGSDATEGVMAKWYASRVGKFSAETQEERLLRIAFLAAEGAFFMRHVAGFPMSDRLWRELFHDLLDFVAEPVGGAARSAA | not soluble
8 | MVRVDVEERFNRIARNTVEIVTEEELKGLLASGARIKGYIGYEPSGVAHIGWLVWMYKVKDLVEAGVDFSVLEATWHAYINDKLGGDMDLIRAAARIVRRVMEAAGVPVERVRFVDAEELASDKDYWGLVIRVAKRASLARVRRALTIMGRRAEEAEVDASKLIYPLMQVSDIFYMDLDIALGGMDQRKAHMLARDVAEKLGRKKPVAIHTPIISSLQGPGRMEASQGEIDDVLAEVKMSKSKPETAVFVVDSDDDIRRKIRKAYCPAKQVQGNPVLEIARYILFARDGFTLRVDRPAKYGGPVEYTSYEELERDYTDGRLHPLDLKNAVAESLIEVVRPIRGAVLGDPAMKRALEAIEGKVTR | soluble
9 | MVSAPSIDTPSATTFDFDSSVFKKEKVTLSGHDEYIVRGGRNLFPLLPDAFKGIKQIGVIGWGSQAPAQAQNLKDSLTEAKSDVVVKIGLRKGSNSFAEARAAGFSEENGTLGDMWETISGSDLVLLLISDSAQADNYEKVFSHMKPNSILGLSHGFLLGHLQSLGQDFPKNISVIAVCPKGMGPSVRRLYVQGKEVNGAGINSSFAVHQDVDGRATDVALGWSIALGSPFTFATTLEQEYKSDIFGERGILLGAVHGIVECLFRRYTESGMSEDLAYKNTVECITGVISKTISTKGMLALYNSLSEEGKKDFQAAYSASYYPSMDILYECYEDVASGSEIRSVVLAGRRFYEKEGLPAFPMGKIDQTRMWKVGEKVRSVRPAGDLGPLYPFTAGVYVALMMAQIEILRKKGHSYSEIINESVIEAVDSLNPFMHARGVSFMVDNCSTTARLGSRKWAPRFDYILSQQALVAVDNGAPINQDLISNFLSDPVHEAIGVCAQLRPSVDISVTADADFVRPELRQA | soluble
10 | MVSQVRQNYHSDCEAAVNRMLNLELYASYTYSSMYAFFDRDDVALHNVAEFFKEHSHEEREHAEKFMKYQNKRGGRVVLQDIKKPERDEWGNTLEAMQAALQLEKTVNQALLDLHKLATDKVDPHLCDFLESEYLEEQVKDIKRIGDFITNLKRLGLPENGMGEYLFDKHSVKESS | soluble
11 | MVTNVEGDMNYCCKVDLKPWHFWNKKGYKSFDVEGNPVEVYWDFRSAKFTSSPEPSSDFYVALVSEEEVVLLVGDYKKKAFKRTKSRPALVEAALFYKKENVFGKKCFTTRAKFYDRKKEHEIIVESSTSGPKEPEMWISIDGIVLIQVKNLQWKFRGNQTVLVDKQPVQVFWDVYDWLFSMPGTGHGLFIFKPGTTEDSDMEGSGHGGGGGGESDTSTGSRYYSTKSSNPWPPEFCLFLHAYKLE | soluble
12 | MVTPFPEVSEWLCIGQIVGAHGLRGEVKVKPFSDFPERFTVPGCRWLRSPRQPQPYAVTLLRGRFLPRAEQFVVTFAEISDRTAAEALKGAEILVPASDRPPLAANEYHLMDLIGLAVYHQGERVGEVVGLVNAGNDLLEVQLLDPAPKAPQSVYIPFVPAIVPVVDLAARRIEIDPPLGLLPLEHHHHHH | not soluble
13 | MVVGDFPIETDTIVIGAGPGGYVAAIRAAQLGQKVTIVEKGNLGGVCLNVGCIPSKALLHASHRFVEAQHSENLGVIAESVSLNFQKVQEFKSSVVNKLTGGVEGLLKGNKVNIVKGEAYFVDNNSLRVMDEKSAQTYNFKNAIIATGSRPIEIPNFKFGKRVIDSTGALNLQEVPGKLVVVGGGYIGSELGTAFANFGSEVTILEGAKDILGGFEKQMTQPVKKGMKEKGVEIVTEAMAKSAEETDNGVKVTYEAKGEEKTIEADYVLVTVGRRPNTDELGLEELGVKFADRGLLEVDKQSRTSISNIYAIGDIVPGLPLAHKASYEAKVAAEAIDGQAAEVDYIGMPAVCFTEPELATVGYSEAQAKEEGLAIKASKFPYAANGRALSLDDTNGFVKLITLKEDDTLIGAQVVGTGASDIISELGLAIEAGMNAEDIALTIHAHPTLGEMTMEAAEKAIGYPIHTM | not soluble
14 | MVVKEILRLLFLLAMYELGKYVTEQVYIMMTANDDVEAPSDYEKIRAEVSWLEHHHHHH | not soluble
15 | MVVNKRLILILLFILNTAKSDELSWKGNDFTLYARQMPLAEVLHLLSENYDTAITISPLITATFSGKIPPGPPVDILNNLAAQYDLLTWFDGSMLYVYPASLLKHQVITFNILSTGRFIHYLRSQNILSSPGCEVKEITGTKAVEVSGVPSCLTRISQLASVLDNALIKRKDSAVSVSIYTLKYATAMDTQYQYRDQSVVVPGVVSVLREMSKTSVPTSSTNNGSPATQALPMFAADPRQNAVIVRDYAANMAGYRKLITELDQRQQMIEISVKIIDVNAGDINQLGIDWGTAVSLGGKKIAFNTGLNDGGASGFSTVISDTSNFMVRLNALEKSSQAYVLSQPSVVTLNNIQAVLDKNITFYTKLQGEKVAKLESITTGSLLRVTPRLLNDNGTQKIMLNLNIQDGQQSDTQSETDPLPEVQNSEIASQATLLAGQSLLLGGFKQGKQIHSQNKIPLLGDIPVVGHLFRNDTTQVHSVIRLFLIKASVVNNGISHGLEHHHHHH | soluble
16 | MVVNVFISAVTTDTLSRKEAVAWVNNLLKSHFTKVEEMASGAAYCQLTHLLFNAINLKKVKFNPRSEPDVLNNWKVLTTTWKDLGIDKPVDVEKMKKAKFQDNMEFLQWFYKFYNANLTTEPEEYDAVGARFGEDLPALKGSTGSRPVAAPARPVAAAPPKPRPAAPAVAAPAVKASVPPTVRNGTRPAPATSAGTRRADPSASEELLKQEIEKHKAASDEWETTAKEMETEREYYYSILQRVESLANEAEESGSSTVDVAALKTILYAGNEDTEQVDEIENEHLVESLQANLDDTETF | soluble
17 | MVVSMRWLLSVFTFLCMKYSEASNPRAIILQNFMDSNKEAVKNLKDDNVLSKALVKTFGLNSSSSSSLSDESSSNLVLMDSTTPCDSGWTKSTVNGMCYKIATADTTWYAAEDWCYSQRYGSHLTSVHSEAEAQWIAATYVSTGWFPYMDNWLGLRRSCDNSTYIWTDGTPVDYLWWQPGYPGSGDPEKSCVTIWVTSLLKLNPGYVQGQFDDIWDCGTNLATPTCRYDPTSTAPHIKYDTSYTCASTTTVSTTSTVTTTKPTTTTTTPTTTTTTPTTTTTESTTTETTSTTTPTTTTTAPTTTTTASTTTFKTTTITTTTQTTTPTTTATTTKPTTTTPTTTRTPVDCSAKCDPFWVSYSDGCYAKIQGTATFETAKLGCQSVGGEMAVITDAAMNEAIRLAFSTNIDSSVSNQAWIGTSSYSNWAPGKPDKAQGVAYSSYCNVIALSVVNKGKDFGFSRGVWTDYPCSLKQEFAICKRI | not soluble
18 | MVVYGADVICASCVNAPTSKDIYDWLQPLLKRKYPNISFKYTYIDITKDNDNLTDHDLQFIERIEQDELFYPLITMNDEYVADGYIQTKQITRFIDQKLVNE | soluble
19 | MVWFFFSCDEYNEEILKTNSGYWKETVSNTPIIGKWITSNGVKIGEKQVLVFQSYENINGSKSDWVMHVYQPTFLPPNQVIFRIYDV | soluble
20 | MVYLKGQIRKALSGFYYVYADGETYQTRARGNFRNRKITPLVGDEVLFESDNLTDGYVLEILPRRNELVRPPVANVDLGVVVMSMVSPNFSFNLLDRFLVSLEYKDIEPVIYLTKVDLLDEPQRQQVTEIKQIYEALGYAVIASEDVEATKELERFFPERLTVFMGQSGAGKSTLLNQISPELQLATAEISQSLGRGKHTTRHVELIPLYDGLVADTPGFSAIDFLEMEAVELPKQFPEFVAAASHCKFRECMHHKEPGCEVKRQVEAGTIATSRYENYLQFLMEIENRRPVYKKKS | not soluble

Source: the DeepSol protein solubility set
